Source: patent US20240209080A1 (PROFOUNDBIO US, published 2024)

Columns and labels:
[1] = target: T1, human FOLR1 on cells (Hela, RPTEC/TERT1, OVCAR3, OV90, IGROV-1, JEG-3, KB, NCI-H441) (human, UniProt P15328 25-234); assay: cell-based or functional assay
[2] = target: T2, Recombinant His-tagged FOLR1 (Example 5 ELISA) (UniProt P15328 25-233, limits assumed); assay: ELISA on coated recombinant His-tagged FOLR1, OD450; unit from the axis 'ADC conc ng/ml'
T2 construct: also called FOLR1-his; recombinant protein FOLR-1; not shown: His tag

[3] = target: T3, human FOLR1 protein, His Tag (ACRO-FO1-H52H1) (human, UniProt P15328 25-233); assay: ELISA OD450 on human FOLR1 divided by OD450 of IgG level ELISA
T3 construct: not shown: His tag

[4] = target: T2, Recombinant His-tagged FOLR1 (Example 5 …); assay: ELISA on coated recombinant His-tagged FOLR1, OD450; unit from the axis 'ng/ml'; curves labelled without '-ADC'
[5] = target: T1, human FOLR1 on cells (Hela, …); assay: flow cytometry on JEG-3 cells, PE anti-human Fc; unit from the axis 'Con.nM'

T2 sequence (P15328 25-233 limits assumed): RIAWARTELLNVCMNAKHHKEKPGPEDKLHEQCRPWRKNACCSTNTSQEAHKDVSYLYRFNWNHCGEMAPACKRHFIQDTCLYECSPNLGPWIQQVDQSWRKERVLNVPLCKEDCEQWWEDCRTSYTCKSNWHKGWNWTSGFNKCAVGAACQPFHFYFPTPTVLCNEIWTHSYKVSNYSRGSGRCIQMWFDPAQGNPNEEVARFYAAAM
T3 sequence (P15328 25-233 limits assumed): as above
T1 sequence (P15328 25-234): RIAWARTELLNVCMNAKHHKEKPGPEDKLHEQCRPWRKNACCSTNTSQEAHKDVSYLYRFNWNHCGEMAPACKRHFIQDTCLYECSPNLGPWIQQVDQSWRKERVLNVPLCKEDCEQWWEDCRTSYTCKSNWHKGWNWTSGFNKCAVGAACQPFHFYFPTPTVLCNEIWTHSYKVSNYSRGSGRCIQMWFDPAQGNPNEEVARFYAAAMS

B1: FR107-ADC (reference antibody mirvetuximab huFR107 conjugated to mc-VC-PAB-MMAE) (antibody, V domains shown)
VH: QVQLVQSGAEVVKPGASVKISCKASGYTFTGYFMNWVKQSPGQSLEWIGRIHPYDGDTFYNQKFQGKATLTVDKSSNTAHMELLSLTSEDFAVYYCTRYDGSRAMDYWGQGTTVTVSS
VL: DIVLTQSPLSLAVSLGQPAIISCKASQSVSFAGTSLMHWYHQKPGQQPRLLIYRASNLEAGVPDRFSGSGSKTDFTLTISPVEAEDAATYYCQQSREYPYTFGGGTKLEIK
modifications: mc-VC-PAB-MMAE on cysteine thiols after TCEP reduction (positions not stated; DAR within 3~4)
notes: Control conjugate
Internalization ratio (%), Hela, 4 h [1]: 58.4% | Internalization ratio (%), Hela, 24 h [1]: 75.1% | Internalization ratio (%), OV90, 4 h [1]: 28% | Internalization ratio (%), OVCAR3, 4 h [1]: 26.3% | Internalization ratio (%), OVCAR3, 24 h [1]: 44.8% | EC50 [2]: 3.39 ng/mL

B2: F8-ADC (antibody F8 conjugated to mc-VC-PAB-MMAE) (antibody, V domains shown)
VH: EVQLLESGGGVVQHGRSLRLSCAASGFTFSSYGMHWVRQAPGKGLEWVAVISYDGSNKYYADSVKGRFTISRDNSKNTLYLQMNSLRAEDTAVYYCARPRAYYGAYGSSFDYWGQGTQVTVSS
VL: EIVMTQSPSSVSASVGDRVAITCRASQGISSWLAWYQQKPGKAPKLLIYAASSLQSGVPSRFSGSGSGTDFTLTISSLQPEDFATYYCQQSYSTPLTFGGGTKVDIK
modifications: mc-VC-PAB-MMAE on cysteine thiols after TCEP reduction (positions not stated; DAR within 3~4)
notes: Antibody-drug conjugate; also called F8 immunoconjugate
Internalization ratio (%), Hela, 4 h [1]: 45.7% | Internalization ratio (%), Hela, 24 h [1]: 73.1% | Internalization ratio (%), OV90, 4 h [1]: 32.7% | Internalization ratio (%), OVCAR3, 4 h [1]: 34.5% | Internalization ratio (%), OVCAR3, 24 h [1]: 47.6% | EC50 [2]: 6.53 ng/mL

B3: anti-FOLR1 antibody F1 (antibody, V domains shown)
VH: EVQLLESGGGVVQPGRSLRLSCAASGFTFSSYGMHWVRQAPGKGLEWVAVISYDGSNKYYADSVKGRFTISRDNSKNTLYLQMNSLRAEDTAVYYCARPRAYYGAYGSSFDYWGQGTQVTVSS
VL: EIVMTQSPSSVSASVGDRVAITCRASQGISSWLAWYQQKPGKAPKLLIYAASSLQSGVPSRFSGSGSGTDFTLTISSLQPEDFATYYCQQSYSTPLTFGGGTKVDIK
notes: also called clone F1
Target binding/IgG level [3]: 1.08 ratio of OD450

B4: anti-FOLR1 antibody F26 (antibody, V domains shown)
VH: EVQLLESGGGVVQRGRSLRLSCAASGFTFSSYGMHWVRQAPGKGLEWVAVISYDGSNKYYADSVKGRFTISRDNSKNTLYLPMNSLRAEDTAVYYCARPRAYYGAYGSSFDYWGQGTQVTVSS
VL: EIVMTQSPSSVSASVGDRVAITCRASQGISSWLAWYQQKPGKAPKLLIYAASSLQSGVPSRFSGSGSGTDFTLTISSLQPEDFATYYCQQSYSTPLTFGGGTKVDIK
notes: also called clone F26
EC50 [4]: 4.68 ng/mL | Target binding/IgG level [3]: 1.21 ratio of OD450

B5: anti-FOLR1 antibody F8 (antibody, V domains shown)
VH: EVQLLESGGGVVQHGRSLRLSCAASGFTFSSYGMHWVRQAPGKGLEWVAVISYDGSNKYYADSVKGRFTISRDNSKNTLYLQMNSLRAEDTAVYYCARPRAYYGAYGSSFDYWGQGTQVTVSS
VL: EIVMTQSPSSVSASVGDRVAITCRASQGISSWLAWYQQKPGKAPKLLIYAASSLQSGVPSRFSGSGSGTDFTLTISSLQPEDFATYYCQQSYSTPLTFGGGTKVDIK
notes: also called clone F8
EC50 [4]: 8.48 ng/mL | Target binding/IgG level [3]: 1.12 ratio of OD450

B6: anti-FOLR1 antibody F123 (antibody, V domains shown)
VH: EVQLLESGGGVVQPERSLRLSCAASGFTFSSYGMHWVRQAPGKGLEWVAVISYDGSNKYYADSVKGRFTISRANSKNTLYLQMNSLRAEDTAVYYCARPRAYYGAYGSSFDYWGQGTQVTVSS
VL: EIVMTQSPSSVSASVGDRVAITCRASQGISSWLAWYQQKPGKAPKLLIYAASSLQSGVPSRFSGSGSGTDFTLTISSLQPEDFATYYCQQSYSTPLTFGGGTKVDIK
notes: also called clone F123
Target binding/IgG level [3]: 1.06 ratio of OD450

B7: anti-FOLR1 antibody F100 (antibody, V domains shown)
VH: EVQLLESGGGVVQPGRSLRLSCAASGFTFSSYGMHWVRQAPGKGLEWVAVISYDGSNKYYADSVKGRFTISRPNSKNTLYLQMNSLRAEDTAVYYCARPRAYYGAYGSSFDYWGQGTQVTVSS
VL: EIVMTQSPSSVSASVGDRVAITCRASQGISSWLAWYQQKPGKAPKLLIYAASSLQSGVPSRFSGSGSGTDFTLTISSLQPEDFATYYCQQSYSTPLTFGGGTKVDIK
notes: also called clone F100
Target binding/IgG level [3]: 1.48 ratio of OD450

B8: F26-ADC (antibody F26 conjugated to mc-VC-PAB-MMAE) (antibody, V domains shown)
VH: EVQLLESGGGVVQRGRSLRLSCAASGFTFSSYGMHWVRQAPGKGLEWVAVISYDGSNKYYADSVKGRFTISRDNSKNTLYLPMNSLRAEDTAVYYCARPRAYYGAYGSSFDYWGQGTQVTVSS
VL: EIVMTQSPSSVSASVGDRVAITCRASQGISSWLAWYQQKPGKAPKLLIYAASSLQSGVPSRFSGSGSGTDFTLTISSLQPEDFATYYCQQSYSTPLTFGGGTKVDIK
modifications: mc-VC-PAB-MMAE on cysteine thiols after TCEP reduction (positions not stated; DAR within 3~4)
notes: Antibody-drug conjugate; also called F26 immunoconjugate
Internalization ratio (%), Hela, 4 h [1]: 43.3% | Internalization ratio (%), Hela, 24 h [1]: 75.5% | Internalization ratio (%), OV90, 4 h [1]: 21.6% | Internalization ratio (%), OVCAR3, 4 h [1]: 38.3% | Internalization ratio (%), OVCAR3, 24 h [1]: 48.1% | EC50 [2]: 8.04 ng/mL

B9: anti-FOLR1 antibody F48 (antibody, V domains shown)
VH: EVQLLESGGGVVQPGRSLRLSCAASGFTFSSYGMHWVRQAPGKGLEWVAVISYDGSNKYYADSVKGRFTISRDNSKNTLYLHMNSLRAEDTAVYYCARPRAYYGAYGSSFDYWGQGTQVTVSS
VL: EIVMTQSPSSVSASVGDRVAITCRASQGISSWLAWYQQKPGKAPKLLIYAASSLQSGVPSRFSGSGSGTDFTLTISSLQPEDFATYYCQQSYSTPLTFGGGTKVDIK
notes: also called clone F48
Target binding/IgG level [3]: 1.12 ratio of OD450

B10: anti-FOLR1 antibody F112 (antibody, V domains shown)
VH: EVQLLESGGGVVQPGRSLRLSCAASGFTFSSYGMHWVRQAPGKGLEWVAVISYDGSNKYYADSVKGRFTISRHNSKNTLYLQMNSLRAEDTAVYYCARPRAYYGAYGSSFDYWGQGTQVTVSS
VL: EIVMTQSPSSVSASVGDRVAITCRASQGISSWLAWYQQKPGKAPKLLIYAASSLQSGVPSRFSGSGSGTDFTLTISSLQPEDFATYYCQQSYSTPLTFGGGTKVDIK
notes: also called clone F112
Target binding/IgG level [3]: 1.12 ratio of OD450

B11: F131-ADC (antibody F131 conjugated to mc-VC-PAB-MMAE) (antibody, V domains shown)
VH: EVQLLESGGGVVQPGRSLRLSCAASGFTFSSYGMHWVRQAPGKGLEWVAVISYDGSNKYYADSVKGRFTISRANSKNTLYLQMNSLRAEDTAVYYCARPRAYYGAYGSSFDYWGQGTQVTVSS
VL: EIVMTQSPSSVSASVGDRVAITCRASQGISSWLAWYQQKPGKAPKLLIYAASSLQSGVPSRFSGSGSGTDFTLTISSLQPEDFATYYCQQSYSTPLTFGGGTKVDIK
modifications: mc-VC-PAB-MMAE on cysteine thiols after TCEP reduction (positions not stated; DAR within 3~4)
notes: Antibody-drug conjugate; also called F131 immunoconjugate
Internalization ratio (%), Hela, 4 h [1]: 50% | Internalization ratio (%), Hela, 24 h [1]: 74.8% | Internalization ratio (%), OV90, 4 h [1]: 15% | Internalization ratio (%), OVCAR3, 4 h [1]: 35.2% | Internalization ratio (%), OVCAR3, 24 h [1]: 47.7% | EC50 [2]: 6.64 ng/mL

B12: anti-FOLR1 antibody F131 (antibody, V domains shown)
VH: EVQLLESGGGVVQPGRSLRLSCAASGFTFSSYGMHWVRQAPGKGLEWVAVISYDGSNKYYADSVKGRFTISRANSKNTLYLQMNSLRAEDTAVYYCARPRAYYGAYGSSFDYWGQGTQVTVSS
VL: EIVMTQSPSSVSASVGDRVAITCRASQGISSWLAWYQQKPGKAPKLLIYAASSLQSGVPSRFSGSGSGTDFTLTISSLQPEDFATYYCQQSYSTPLTFGGGTKVDIK
notes: also called F131 mAb; clone F131
EC50 [4]: 8.46 ng/mL | EC50 [5]: 1.55 nM | Target binding/IgG level [3]: 1.02 ratio of OD450

B13: anti-FOLR1 antibody F138 (antibody, V domains shown)
VH: EVQLLESGGGVVQPGRSLRLSCAASGFTFSSYGMHWVRQAPGKGLEWVAVISYDGSNKYYADSVKGRFTISTHNSKNTLYLQMNSLRAEDTAVYYCARPRAYYGAYGSSFDYWGQGTQVTVSS
VL: EIVMTQSPSSVSASVGDRVAITCRASQGISSWLAWYQQKPGKAPKLLIYAASSLQSGVPSRFSGSGSGTDFTLTISSLQPEDFATYYCQQSYSTPLTFGGGTKVDIK
notes: also called clone F138
Target binding/IgG level [3]: 1.2 ratio of OD450

B14: anti-FOLR1 antibody F40 (antibody, V domains shown)
VH: EVQLLESGGGVVQPGRSLRLSCAASGFTFSSYAMHWVRQAPGKGLEWVAVISYDGSNKYYADSVKGRFIISRDNSKNTVYLQMNSLRAEDTAVYYCARPTYVFTYTGSSFDYWGQGTQVTVSS
VL: DIQVTQSPSSLSASLGDTVSITCRASRGLTDSVAWYQQKPGQAPKLLIYAASTLQSGVPSRFGGSGSGSYFTLTITSLQPEDVATYYCQNYKSAPWTFGQGTKVEIK
notes: also called clone F40
Target binding/IgG level [3]: 1.02 ratio of OD450
